B1: Hab1F2F9.15 (antibody, human IgG1, kappa, L234A L235A, V domains shown)
VH: QVQLVQSGAEVKKPGASVKVSCKASGYTFTSYWMHWVRQAPGQRLEWMGNINPSNGGTKYSQKFQGRVTITVDTSASTAYMELSSLRSEDTAVYYCARRDYGSPSYWGQGTTVTVSS
VL: DIQMTQSPSSLSASVGDRVTITCKASQDINSYLTWFQQKPGKAPKSLIYRTNILLDGVPSRFSGSGSGTDYTLTISSLQPEDFATYYCLQYHEFPVTFGGGTKLEIKR
notes: Humanized 1F2F9; also called Huab1F2F9.15; HuablF2F9.15
B2: Hab7C3C2.5 (antibody, human IgG1, kappa, L234A L235A, V domains shown)
VH: QVQLVQSGAEVKKPGASVKVSCKASGYTFTSYDINWVRQATGQGLEWIGWIYPRDGFTKYNEKFKGRVTLTVNTSISTAYMELSSLRSEDTAVYYCARKEGYRGDWYFDVWGQGTTVTVSS
VL: DIQMTQSPSSLSASVGDRVTITCRASGNVHNYLAWYQQKPGKAPKLLLYNAKTLASGVPSRFSGSGSGTDYTLTISSLQPEDFATYYCQHFWSTPWTFGGGTELEIKR
notes: Humanized 7C3C2; also called Hab7C3C.5

What was measured:
[1] = biological target: T1, N-terminal portion of the CD73 protein (Homo sapiens (Human), UniProt P21589 27-317, limits assumed); experiment: ELISA, plate coated with CD73 N-terminal protein at 1 µg/mL
T1 construct: also called CD73 N-terminal protein; N-terminus of the CD73 protein
T1 sequence: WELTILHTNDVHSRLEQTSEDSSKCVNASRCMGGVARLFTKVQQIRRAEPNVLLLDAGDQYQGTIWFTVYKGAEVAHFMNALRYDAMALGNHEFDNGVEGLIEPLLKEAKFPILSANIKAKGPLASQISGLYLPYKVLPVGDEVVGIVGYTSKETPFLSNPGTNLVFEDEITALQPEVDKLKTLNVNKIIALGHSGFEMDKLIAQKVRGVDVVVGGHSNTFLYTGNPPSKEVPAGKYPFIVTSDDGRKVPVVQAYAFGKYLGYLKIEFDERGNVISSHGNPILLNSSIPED
Protocol: In this example, the C-terminal portion (SEQ ID NO. 41) and the N-terminal portion (SEQ ID NO. 42) of the CD73 protein were separately constructed, and the epitopes recognized by the antibodies were detected by ELISA method. Elisa plates were respectively coated with the CD73 N-terminal and C-terminal proteins at a concentration of 1 μg/mL. The test antibodies were diluted in a gradient.

[2] = biological target: T2, recombinant human CD73 protein (human, UniProt P21589 27-547); experiment: BLI (Fortebio), human CD73 on HIS1K biosensors, antibody as analyte
T2 construct: Bought soluble protein; The background says that CD73 forms a homodimer; also called soluble CD73; free CD73 protein
T2 sequence (looked up): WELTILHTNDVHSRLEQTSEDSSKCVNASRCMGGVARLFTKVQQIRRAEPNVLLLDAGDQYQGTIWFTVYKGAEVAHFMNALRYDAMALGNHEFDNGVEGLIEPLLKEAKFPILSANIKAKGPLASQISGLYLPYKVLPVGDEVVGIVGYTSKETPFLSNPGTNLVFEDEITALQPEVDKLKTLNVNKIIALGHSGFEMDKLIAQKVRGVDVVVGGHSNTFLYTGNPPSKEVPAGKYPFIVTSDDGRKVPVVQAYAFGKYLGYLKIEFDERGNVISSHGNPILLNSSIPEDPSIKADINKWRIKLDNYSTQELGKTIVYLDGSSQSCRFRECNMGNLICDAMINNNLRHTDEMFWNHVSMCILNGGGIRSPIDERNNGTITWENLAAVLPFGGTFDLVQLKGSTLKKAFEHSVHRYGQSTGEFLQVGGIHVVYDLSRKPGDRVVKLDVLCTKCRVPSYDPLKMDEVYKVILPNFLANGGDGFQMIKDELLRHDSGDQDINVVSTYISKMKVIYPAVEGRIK
Protocol: The humanized antibody VH and VL were separately constructed into eukaryotic expression vectors containing the hIgG1-kappa constant region with L234A, L235A, P329A and P331S mutations (abbreviated as hIgG1 in the present application). The affinity of all humanized antibodies was assayed in this example. Human CD73 protein was immobilized onto HIS1K biosensors to achieve a binding response threshold of 0.3 nm. After a 120-second baseline step, the sensors were separately immersed in anti-CD73 antibody analytes diluted in a gradient with a 0.02% PBST buffer (each antibody was diluted in a 2-fold gradient with an initial concentration of 25 nM, resulting in 7 concentration gradients). The times for the ligand-analyte binding and dissociation were 120 s and 300 s, respectively. The data of the antigen-antibody affinity were calculated by regression according to the binding curves using an analysis software.

| Binder | binding result [1] | Kd [2] | koff [2] | kon [2] |
| --- | --- | --- | --- | --- |
| B1 | no binding | 0.779 nM | 0.0016 s⁻¹ | 2.06e+06 M⁻¹ s⁻¹ |
| B2 | no binding | 0.765 nM | 0.00272 s⁻¹ | 3.56e+06 M⁻¹ s⁻¹ |

Source: patent US20260152567A1 (CSPC MEGALITH BIOPHARMACEUTICAL, published 2026)
